B1: SPACA3 (parent)
chain: FTSGFNAAALDYEADGSTNNGIFQ
B2: MMP1 (parent)
chain: FHGTRQYKFDPKTKRILTLQKANS

Variants of: B1
Experiment: protein stability index of a GFP-peptide fusion (GPS, HEK-293T) (PSI 1-6); higher = more stable
Conditions: c terminus: a fixed tail appended
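Further: lentivirally expressed fusions sorted by FACS into six bins by GFP to DsRed ratio, PSI derived from sequencing read proportions per bin multiplied by bin number.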

Protein stability index of substitutions, site by site:
S17: H 2.31

Variants of: B2
Experiment: as above
Conditions: c terminus: a fixed tail appended

Protein stability index of substitutions, site by site:
Y7: W 3.02, R 2.4, I 1.94, K 2.55, Q 2.45, C 1.97, E 2.5, S 2.74, G 1.77, V 2.27, A 2.31, P 2.08, T 1.89, H 2.18, D 2.38, F 1.75, N 2.46, M 1.72, L 2.57
F1: P 3.17, H 3.12, L 3.05, N 3.34, C 2.95, I 3.12, G 3.44, D 3.65, K 3.33, V 3.18, M 3.13, T 3.4, S 3.43, R 3.31, A 3, Q 3.32, E 3.91, W 2.35, Y 2.51
H2: L 2.36, G 2.55, S 2.39, C 1.88, E 3.03, D 3.55, Y 2.35, W 2.29, I 2.47, K 2.57, M 2.53, A 1.69, P 1.68, V 1.91, F 2.34, N 2.33, Q 2.19, R 3.04, T 2.04
K8: L 1.64, S 2.52, D 2.07, W 3.37, P 1.71, C 2.73, H 1.76, E 2.21, G 2.24, T 2.5, Y 2.22, I 2.49, M 2.63, V 1.74, Q 1.78, F 2.76, N 2.71, A 2.04, R 2.65
T4: R 2.06, S 2.08, D 2.43, A 1.81, E 2.29, K 2.17, N 2.38, Q 2.95, V 1.69, I 2.13, W 3.19, F 3.12, M 1.8, G 1.78, P 1.61, Y 2.98, L 1.26, H 1.68, C 1.6
F9: K 2.17, D 2.27, P 2.13, I 1.68, H 1.98, N 2.39, R 2.39, E 1.76, M 1.67, G 2.24, C 2.48, Q 1.6, L 2.05, A 1.74
Q6: I 2.39, R 1.5, M 1.82, N 1.92, S 1.67, L 1.83, C 1.9, D 1.87, E 2.12, Y 2.04, V 2.96, F 3.64, A 2.15, G 1.61, K 1.92, H 4.5, P 1.46, W 2.63, T 1.6
R5: V 2.04, C 1.79, H 2.07, A 1.8, D 2.38, E 2.02, L 2.2, W 2.45, Y 2.13, P 2.32, G 1.88, N 1.98, T 1.68, I 2.21, M 2.3, F 1.7, K 2.55, S 1.72, Q 1.83
G3: R 1.6, F 1.58, V 2.3, L 1.63, S 1.54, H 2.23, A 2.02, E 2.61, Y 1.96, T 2.1, Q 1.67, P 2.68, N 2.77, I 1.78, D 2.29, M 1.78, W 2.02, C 2.63, K 1.93
